Earlier results on two molecules are cited in paper PMC5209733, “U24 from Roseolovirus interacts strongly with Nedd4 WW Domains” (Scientific Reports, 2017).

What is called Kd is the constant that tells how readily two partners part at equilibrium.

The target of one series is Fyn SH3. The settings on record: association with Fyn SH3. From the text: One possible way in which U24 may be implicated in MS is through the mimicry of myelin basic protein (MBP) because the two proteins share a seven amino acid stretch that contains a PxxP motif (Fig. 1a). This segment is essential for MBP to participate in Fyn-mediated signalling pathways by a direct but non-canonical association with the Fyn-SH3 domain[11]. Disruption of these signalling pathways has a large impact on oligodendrocyte differentiation and maturation, processes that are perturbed in MS patients. Within this PxxP motif and just before it are two threonine residues (T95 and T98), wh ...

Series [1] relates to human Nedd4 family E3 ubiquitin ligases: Nedd4-1, Nedd4-2, AIP4, Smurf1, Smurf2, WWP1, and WWP2. The settings on record: pull-down assays. From the text:
However, precise binding affinities are hard to extract from such results. […] We have focussed our studies on human Nedd4 WW domains (hNedd4 and hNedd4L, Fig. 1b) given their relevance in the CNS, noted above. As controls, we have u ...

Series [2] relates to transferrin receptor (TfR). From the text: (§1) Within the proline rich region of U24 is a PY motif that is conserved in both HHV-6A and HHV-7 (Fig. 1a). […] However, the exact mechanism by which this occurs is unknown.
For series [3], the system named is TCR/CD3ε receptors in T-cells. The settings on record: PY motif responsible for down-regulation.
Source text: as §1

A further series concerns Nedd4-WW1 domain. The settings on record: found previously. The protocol:
In order to compare with previously reported results, experiments were carried out on four relevant WW domains: the second and the third WW domain of rat Nedd4 (rNedd4-WW2 and rNedd4-WW3/4, where WW3/4 is a homologue of the fourth WW domain in human), and the pair of third WW domains from human Nedd4 (hNedd4-WW3* and hNedd4L-WW3*). The WW3 domains are indicated with a star because this type of WW domain is missing in rat and mouse Nedd4[36][37]. Nedd4-WW1 domain was not used as it was found previously not to bind U24. The WW domains mentioned above were fused to the C-terminus of GST prote ...

B1: MBP: myelin basic protein (protein, UniProt P02686 1-304, looked up)
Myelin basic protein: MGNHAGKRELNAEKASTNSETNRGESEKKRNLGELSRTTSEDNEVFGEADANQNNGTSSQDTAVTDSKRTADPKNAWQDAHPADPGSRPHLIRLFSRDAPGREDNTFKDRPSESDELQTIQEDSAATSESLDVMASQKRPSQRHGSKYLATASTMDHARHGFLPRHRDTGILDSIGRFFGGDRGAPKRGSGKDSHHPARTAHYGSLPQKSHGRTQDENPVVHFFKNIVTPRTPPPSQGKGRGLSLSRFSWGAEGQRPGFGYGGRASDYKSAHKGFKGVDAQGTLSKIFKLGGRDSRSGSPMARR
Regarding B1, the Kd on Fyn SH3 was 4 to 8 µM.

B2: U24: putative tail-anchored membrane protein that is unique to roseoloviruses (protein)
chain: MDPPRTPPPSYSEVLMMDVMCGQVSPHVINDTSFVECIPPPQSRPAWNLWNNRRKTFSFLVLTGLAIAMILFIVFVLYVFHVNRQRR
Regarding B2, the “binding to Nedd4 family E3 ubiquitin ligases” value in series [1] was “can bind to most of the seven human Nedd4 family E3 ubiquitin ligases”. The “modulation of transferrin receptor” value in series [2] is listed as “down-modulate the transferrin receptor”. The “recycling of TCR/CD3ε receptors to the cell surface” value in series [3] is “blocked from recycling back to the cell surface”. In addition, the “binding to Nedd4-WW1” value with Nedd4-WW1 domain is reported as “not to bind”.
